The target of test [1] is T1, pro-domain of activin A, N-terminal His6-tagged, released from engineered pro-activin A by HRV 3C protease (human).
T1 sequence (P08476 whole entry, looked up): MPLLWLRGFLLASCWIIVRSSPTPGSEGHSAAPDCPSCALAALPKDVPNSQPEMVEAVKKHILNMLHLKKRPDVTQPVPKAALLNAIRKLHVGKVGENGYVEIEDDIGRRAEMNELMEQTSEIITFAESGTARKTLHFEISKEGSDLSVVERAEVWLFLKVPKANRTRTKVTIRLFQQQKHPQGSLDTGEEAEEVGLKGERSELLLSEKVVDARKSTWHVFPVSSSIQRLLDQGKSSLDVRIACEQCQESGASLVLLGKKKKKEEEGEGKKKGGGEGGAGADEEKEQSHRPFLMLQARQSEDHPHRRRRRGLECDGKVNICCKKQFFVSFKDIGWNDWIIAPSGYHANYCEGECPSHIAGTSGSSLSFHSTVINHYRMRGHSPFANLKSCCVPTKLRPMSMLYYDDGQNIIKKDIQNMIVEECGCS
The experiment in a line: BLI; pro-activin A complex immobilised at 50 μg/ml on anti-penta-HIS biosensors, mature domain removed with 16 μM FST-288, then mature activin A in solution; 600 s association, 600 s dissociation; 30 °C.

Test [2] shares this target. The experiment in a line: BLI; His6-tagged pro-activin A complex immobilised through the pro-domain on anti-penta-HIS biosensors, dipped into buffer containing 100 nM FST-288 for 600 s; dissociation of the mature domain; 30 °C. (In BLI a coated tip is dipped into the sample, and binding shifts an interference pattern.)
For test [3] the target is unchanged. The experiment in a line: BLI; reverse phase purified His6-tagged pro-domain immobilised at 25 μg/ml on anti-penta-HIS biosensors; mature activin A in solution; 300 s association, 300 s dissociation; Octet RED96, 30 °C.
Test [4] shares this target. The experiment in a line: BLI; His6-tagged pro-activin A complex immobilised through the pro-domain on anti-penta-HIS biosensors, dipped into blank buffer for 600 s; dissociation of the mature domain; 30 °C.

B1: mature activin A (disulfide-linked dimer of the mature domain of inhibin βA) (ligand)
chain: GLECDGKVNICCKKQFFVSFKDIGWNDWIIAPSGYHANYCEGECPSHIAGTSGSSLSFHSTVINHYRMRGHSPFANLKSCCVPTKLRPMSMLYYDDGQNIIKKDIQNMIVEECGCS
As to B1, the Kd worked out at 2.3 nM in test [1] and 5 nM in test [3]. Besides, in test [2], the dissociation rate with 100 nM FST-288 came to 0.00445 s⁻¹. The koff in test [4] came out at 0.00299 s⁻¹.

One may read the Kd as the constant that tells how readily two partners part at equilibrium. As a reminder, the koff is a measure of how fast the partners let go of each other.
